In PMC12638815 (2025):
Changes are numbered by the printed parent chain.

B1: VHH B09 (VHH)
VHH: QVQLVESGGGLVQAGGSLRLSCATSRSTFSSNTIGWYRQAPGKQRELVASISTSGNTYYADSVKGRFAISRDNAENTVYLQMNSLKPEDTAVYYCNTPSRRISNFWGQGTQVTVSS
B2: VHH B07 (VHH)
VHH: B1 VHH with Q1E, V5Q, E6A, T24A, S31T, A60P
B3: VHH B10 (VHH)
VHH: QVQLVESGGGLVQAGDSLRLSCAASGRTFSSYAMGWFRQALGKEREFVAVISGSGTSTYYTDSVKGRFTISRDNAKNTVYLQMNSLKPEDTAVYYCARAKGFSTIYNQDEGRYDYWGQGTQVTVSS

Each binder was assayed against hACE2 peptidase domain fused to a human Fc from IgG (human) (assay: BLI).
hACE2 peptidase domain fused to a human Fc from IgG (human), sequence (Q9BYF1 19-615): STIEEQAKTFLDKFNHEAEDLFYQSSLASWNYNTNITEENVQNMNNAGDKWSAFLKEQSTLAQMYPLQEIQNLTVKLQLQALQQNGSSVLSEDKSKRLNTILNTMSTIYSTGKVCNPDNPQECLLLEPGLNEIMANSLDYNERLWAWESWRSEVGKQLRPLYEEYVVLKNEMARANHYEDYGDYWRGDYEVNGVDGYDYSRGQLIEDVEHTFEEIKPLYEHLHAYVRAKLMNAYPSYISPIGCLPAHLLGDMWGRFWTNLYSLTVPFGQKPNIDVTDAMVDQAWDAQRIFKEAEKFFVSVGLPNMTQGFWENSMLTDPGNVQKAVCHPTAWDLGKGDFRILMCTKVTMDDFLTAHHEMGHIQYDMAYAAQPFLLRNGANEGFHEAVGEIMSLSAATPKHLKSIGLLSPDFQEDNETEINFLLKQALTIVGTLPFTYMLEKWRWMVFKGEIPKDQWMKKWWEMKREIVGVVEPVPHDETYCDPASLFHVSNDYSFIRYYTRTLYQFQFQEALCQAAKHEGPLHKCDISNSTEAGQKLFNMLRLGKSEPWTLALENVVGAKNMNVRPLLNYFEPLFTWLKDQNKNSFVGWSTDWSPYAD

Binder	koff
B1	0.000106 s⁻¹
B2	0.0001 s⁻¹
B3	0.000411 s⁻¹
